In US20150098945A1 (Daiichi Sankyo, published 2015):

Molecular target: T1, human ROBO3 (pCI-hROBO3-transfected HEK293 cells) (human, UniProt Q96MS0 21-1386)
T1 sequence: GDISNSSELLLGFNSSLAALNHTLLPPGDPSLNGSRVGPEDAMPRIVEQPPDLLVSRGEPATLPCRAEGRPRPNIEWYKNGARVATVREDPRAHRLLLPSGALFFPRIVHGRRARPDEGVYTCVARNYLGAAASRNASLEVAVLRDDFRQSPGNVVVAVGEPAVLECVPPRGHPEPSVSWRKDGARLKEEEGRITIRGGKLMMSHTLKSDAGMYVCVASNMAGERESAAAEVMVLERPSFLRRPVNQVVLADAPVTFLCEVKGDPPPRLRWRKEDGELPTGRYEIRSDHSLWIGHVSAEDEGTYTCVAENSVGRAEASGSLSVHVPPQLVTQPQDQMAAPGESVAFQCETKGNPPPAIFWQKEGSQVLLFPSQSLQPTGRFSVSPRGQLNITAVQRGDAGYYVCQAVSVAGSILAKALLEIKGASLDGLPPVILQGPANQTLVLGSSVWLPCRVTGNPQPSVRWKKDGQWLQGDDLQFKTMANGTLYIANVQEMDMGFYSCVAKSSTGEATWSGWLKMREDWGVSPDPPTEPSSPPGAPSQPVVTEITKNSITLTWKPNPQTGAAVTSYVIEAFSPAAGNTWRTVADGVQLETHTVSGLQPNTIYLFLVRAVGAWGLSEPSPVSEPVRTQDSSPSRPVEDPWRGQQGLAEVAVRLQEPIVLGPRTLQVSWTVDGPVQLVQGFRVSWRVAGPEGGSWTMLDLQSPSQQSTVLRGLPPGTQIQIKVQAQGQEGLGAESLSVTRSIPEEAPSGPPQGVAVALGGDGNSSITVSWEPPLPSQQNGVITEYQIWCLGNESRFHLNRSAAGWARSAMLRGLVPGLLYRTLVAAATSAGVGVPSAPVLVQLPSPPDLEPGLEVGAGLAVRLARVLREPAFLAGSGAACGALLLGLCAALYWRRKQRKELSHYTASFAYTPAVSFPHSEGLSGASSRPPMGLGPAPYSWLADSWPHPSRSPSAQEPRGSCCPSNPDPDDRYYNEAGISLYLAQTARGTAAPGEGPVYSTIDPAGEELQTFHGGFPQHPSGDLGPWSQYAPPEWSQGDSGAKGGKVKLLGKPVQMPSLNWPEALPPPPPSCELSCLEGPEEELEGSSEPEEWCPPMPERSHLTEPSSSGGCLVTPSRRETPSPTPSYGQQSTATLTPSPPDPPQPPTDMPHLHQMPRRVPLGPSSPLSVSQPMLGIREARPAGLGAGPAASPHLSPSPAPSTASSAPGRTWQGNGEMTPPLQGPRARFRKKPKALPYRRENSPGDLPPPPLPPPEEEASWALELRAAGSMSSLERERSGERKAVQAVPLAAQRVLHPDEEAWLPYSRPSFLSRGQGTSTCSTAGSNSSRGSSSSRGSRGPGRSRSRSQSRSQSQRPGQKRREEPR
Experiment: flow cytometry, HEK293 cells transfected with pCI-hROBO3, anti-mouse IgG FITC; control histogram IgG
Experimental: HEK293 cells were inoculated at a concentration of 1.2×10⁶ cells/dish or 1.5×10⁶ cells/dish to a 60-mm dish (manufactured by Corning Inc.) and cultured overnight in a DMEM medium containing 10% FBS at 37° C. under 5% CO₂ conditions. On the next day, the HEK293 cells were transfected with pCI-hROBO4, pCI-FLAG-hROBO1, pCI-hROBO2, or pCI-hROBO3 using FuGENE6 Transfection Reagent and further cultured overnight at 37° C. under 5% CO₂ conditions. On the next day, the expression vector-transfected cells were treated with TrypLE Express (manufactured by Life Technologies Corp.), washed with PBS containing 5% FBS, and then suspended in PBS containing 5% FBS. The obtained cell suspension was used in flow cytometry analysis.
Each cell suspension prepared in 4)-4-1 was centrifuged, and the supernatant was removed. […] Data was analyzed using Flowjo. The histogram of FITC fluorescence intensity was prepared. The antibody was determined to bind in a specific manner when the histogram of MAb1 was shifted to a stronger fluorescence intensity region compared with the histogram of the negative control Mouse IgG1 or Mouse IgG2a. […]

binding result: no binding (tested: 10 µg/mL)
B1: anti-ROBO4 mouse monoclonal antibody MAb1 (antibody, mouse IgG1, V domains shown)
VH: EVQLVESGGGLVKPGGSLKLSCAASGFTFSTYAMSWVRQTPEKRLEWVATISNGGTYTYYPDSVKGRFTISRDNAENTLYLQMSSLRSEDTAMYFCARLIYYDYLDYWGHGTTLTVSS
VL: DAVMTQTPLSLPVSLGDQASISCRSSQSLENSNGNTYLNWYFQKPGQSPQLLIYRVSNRFSGVLDRFSGSGSGTDFTLKISRVEAEDFGVYFCLQVTHVPWTFGGGTKLEIKR
notes: Mouse IgG1 (gamma1), kappa light chain, purified from hybridoma supernatant; also called parent antibody MAb1
